Data on 23 sequences can be found in the supplement of paper PMC9170038.

This data set has as its system MS2 coat protein. Briefly: apparent KD of MS2 coat protein; designed switch direction (-1 OFF switch, 1 ON switch): -1; higher = weaker reporter binding. The gist of the method:
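The apparent KD reported per design is the median over clusters of curve fits to normalised cluster fluorescence. The RNA switches were transcribed on Illumina chips by stalled E. coli RNA polymerase. SNAP-549-labelled MS2 coat protein was titrated from 0.7 or 1.5 nM, doubling up to 3 µM, in Tris-HCl pH 7.5 buffer containing KCl, MgCl2, BSA, DTT, tRNA and Tween-20, with no input, 200 uM small-molecule ligand, or an oligonucleotide input.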

Where [1] appears, read: input ligand: microRNA oligo, concentration not stated.
Setting [2] is: Eterna round: R95, input ligand: FMN 200 uM.
Where [3] appears, read: Eterna round: R95, input ligand: microRNA oligo, concentration not stated.
The mark [4] stands for this setting: Eterna round: R95, input ligand: none.

With “GUGUUACAUGAGGAUCACCCAUGUGAGGAUAUCAUGCUUCGUAGUAAACUACGAAGUGUGAGAAGGCAUAUGAC [Omei Ex1 E4] (Eterna round: R97, puzzle: Exclusion 1)”, the “apparent KD of MS2 coat protein” value by setting is: (input ligand: FMN 200 uM) 50.7 nM; (input ligand: none) 56.5 nM.
As for “GUGUUGCGAGGAUAUAUAAGGGUAUGUUCUUAGGAUAUGGAACAUGAGGAUCACCCAUGUAGAAGGUGCAUAUC [JR_Ex2_Sub047] (Eterna round: R97, puzzle: Exclusion 2)”, the “apparent KD of MS2 coat protein” value stood at 67.8 nM (input ligand: FMN 200 uM) and 33.9 nM (input ligand: none).
On to “GUGUUUGAUGAGGAUAUCGAUGUGGGUAUAUAGCGAGAAGGCAUUACAUGAGGAUCACCCAUGUAGUGUGGGUU [JR_Ex6_Sub024] (Eterna round: R97, puzzle: Exclusion 6)”, for which the “apparent KD of MS2 coat protein” value reads like this: (input ligand: FMN 200 uM) 33.3 nM; (input ligand: none) 35.6 nM.
For the sequence “GUGUUUGGUGUAGGAUAUGUUUGUGGGUCGCGGGCAGAAGGACAUGAGGAUCACCCAUGUUUCGGGCUUGGCUUGGGCGGGCGC [-21, -19 kcal and 14% A] (Eterna round: R96, puzzle: Exclusion NG 1)”, the “apparent KD of MS2 coat protein” value came out at 16.7 nM (input ligand: FMN 200 uM), 12.4 nM under setting [1] and 17.6 nM (input ligand: none).
As for “GUUAAACAUGAGGAUCACCCAUGUAAGGAUAUGCUGAGGUCGCGCUGACGUGACUGAAGCAGAAGGUACAAAUG [Mat - Mod of JL D62] (puzzle: Exclusion 1)”, the “apparent KD of MS2 coat protein” value is, setting by setting: under setting [2], 85.4 nM; under setting [3], 48.7 nM; under setting [4], 73.9 nM.
Take “GUUAACGAUGAGGAUAUAUGAUAUCAAAGCAUCAUAGAAGGCAUCACAUGAGGAUCACCCAUGUGAUCUUCUUU [jl-ex6-4.10 ViennaUCT mod] (Eterna round: R97, puzzle: Exclusion 6)”: the “apparent KD of MS2 coat protein” value reads like this: (input ligand: FMN 200 uM) 83.6 nM; (input ligand: none) 15.2 nM.
With “GUUAACGUAGGAUAUUAGUACAUGAACAUGAGGAUCACCCAUGUGAGGUAGGUCUAAGAAUAAGAAGGGCGAAGAA [EX5 #27] (Eterna round: R97, puzzle: Exclusion 5)”, the “apparent KD of MS2 coat protein” value stood at 108 nM (input ligand: FMN 200 uM) and 185 nM (input ligand: none).
For “GUUAACGUAGGAUAUUAGUACAUGAACAUGAGGAUCACCCAUGUGAGGUGGGUCUUAGAUUAAGAAGGGCGAAGAA [EX5 #30] (Eterna round: R97, puzzle: Exclusion 5)” the same measures were 525 nM and 867 nM.
In the case of “GUUAAGUGAGGAUAUGGUGAGUAGUGCCUGAGCGCUGCUCACCAGAAGGCACAUGAGGAUCACCCAUGUAUAAC [Mat - Exclusion 4 - Mod of JL - D16] (puzzle: Exclusion 4)”, the “apparent KD of MS2 coat protein” value under setting [3] worked out at 19.9 nM.
For the sequence “GUUACUAUUGUGAGGAUAUACUUAUUAAUAAAUAGGUAGAAGGCACAUGAGGAUCACCCAUGUUUUAACUUUUC [lam1] (Eterna round: R97, puzzle: Brourd's mod of Exclusion 4)”, the “apparent KD of MS2 coat protein” value is 96.8 nM (input ligand: FMN 200 uM) and 24.9 nM (input ligand: none).
On to “GUUAGACAUGAGGAUCACCCAUGUGAGGAUAUGAUGCGAAUAAAGAAUGAAGUAAGCAUCAGAAGGCACAUAUG [Mat - Mod of Hyphema D30] (puzzle: Exclusion 1)”, for which the “apparent KD of MS2 coat protein” value under setting [3] was found to be 235 nM.
“GUUAGUAUCUAGGAUAUCUAGUACAUAGUAUCUAGAGAAGGAGAUACAUGAGGAUCACCCAUGUUCUGUGAUCU [Exclusion 6 - 2:c] (puzzle: Exclusion 6)”: the “apparent KD of MS2 coat protein” value worked out at 53 nM under setting [2], 205 nM under setting [3] and 234 nM under setting [4].
On to “GUUAUCGGAGGAUAUACAUGAGGAUCACCCAUGUGCCAGUAUGUACUAAUCCUUUAGAGUAGAAGGUCGAUAGG [Eternabot (L1) Solution 72] (Eterna round: R97, puzzle: Exclusion 3)”, for which the “apparent KD of MS2 coat protein” value (input ligand: FMN 200 uM) is 198 nM and the “apparent KD of MS2 coat protein” value (input ligand: none) amounted to 118 nM.
On the same counts, the results for “GUUAUGCGGCAGGAUAUCCAUCCGCGGUAUGAUGGAGAAGGGCCGACAUGAGGAUCACCCAUGUGCGUCCUAGG [jl-ex6-4.49 ViennaUCT mod] (Eterna round: R97, puzzle: Exclusion 6)” are 155 nM and 53 nM.
For the sequence “GUUCCACAUGAGGAUCACCCAUGUGAGGAUAUGGUUUCGCUGGCCGUAGCCAGUGGAACCAGAAGGCGCGUGAU [Mat - Exclusion 1 - JL Mod - D19] (Eterna round: R97, puzzle: Exclusion 1)”, the “apparent KD of MS2 coat protein” value by setting is: (input ligand: FMN 200 uM) 80.8 nM; (input ligand: none) 67.3 nM.
As for “GUUCUGACAGGAUAUACAUGAGGAUCACCCAUGUGCCCUUGGAGAUGCAAAGCAUCUCGUAGAAGGGUCUGAAC [Omei Ex3 Model Bachelor's Dilema v29] (Eterna round: R97, puzzle: Exclusion 3)”, the “apparent KD of MS2 coat protein” value runs as follows: (input ligand: FMN 200 uM) 34 nM; (input ligand: none) 37.2 nM.
Regarding “GUUGGGUGAUGAUACAUGAGGAUCACCCAUGUUAAAAGUCAUUAGGAUAUCCCGACGGCCGGUUAGGAGAAGGAGUGACCAGGC [Maonma] (Eterna round: R96, puzzle: Exclusion NG 3)”, the “apparent KD of MS2 coat protein” value turned out to be 636 nM (input ligand: FMN 200 uM), 285 nM under setting [1] and 429 nM (input ligand: none).
“GUUGUGCGAGGAUAUAUGUGAGGUUUGCCUCAACAGGUAAUACAUGAGGAUCACCCAUGUAGAAGGCGCAUGAG [S1-(23.6);S2-(22.1) [87C]] (Eterna round: R96, puzzle: Exclusion 2)”: the “apparent KD of MS2 coat protein” value runs as follows: (input ligand: FMN 200 uM) 248 nM; under setting [1], 45 nM; (input ligand: none) 63.9 nM.
With “GUUGUUUAUGUAGGAUAUGCCUGGCGUGCCUUUGCAGAAGGACAUGAGGAUCACCCAUGUAACAUGAGGCUCACCCAUGUCGCA [salish99_ExNG1_r04_109] (Eterna round: R96, puzzle: Exclusion NG 1)”, the “apparent KD of MS2 coat protein” value was 758 nM (input ligand: FMN 200 uM), 244 nM under setting [1] and 599 nM (input ligand: none).
On to “GUUGUUUAUGUAGGAUAUGCCUGGCGUGCCUUUGCAGAAGGACAUGAGGAUCACCCAUGUAUUGCGGUCUGCGUUCAGAUCGCG [salish99_ExNG1_r4_040] (Eterna round: R96, puzzle: Exclusion NG 1)”, for which the “apparent KD of MS2 coat protein” value runs as follows: (input ligand: FMN 200 uM) 58.3 nM; under setting [1], 27.8 nM; (input ligand: none) 30 nM.
On to “GUUUACAAGCUAAGAUCCUACAUGAGGAUCACCCAUGUGGUCCGGUGACGUGAGUCACCGGACUUAGCUCGUCUUGU [salish99_S_TOV1_R5_001] (Eterna round: R97, puzzle: Sensor, turn-off variant 1)”, for which the “apparent KD of MS2 coat protein” value was determined as 86.8 nM (input ligand: FMN 200 uM) and 90.4 nM (input ligand: none).
Take “GUUUAGUGAGGAUAUGUGGCUUCGAUCGUGCGAGGGAGGCUACAGAAGGCACAUGAGGAUCACCCAUGUUCCUC [salish99_ex4_r4_303] (Eterna round: R97, puzzle: Exclusion 4)”: the “apparent KD of MS2 coat protein” value was 655 nM (input ligand: FMN 200 uM) and 42.5 nM (input ligand: none).
For “GUUUCACAUGAGGAUCACCCAUGUGAGGAUAUGGAUUCGAUAGAAGUAGAAGAUGGAUCCAGAAGGCGCGUGAC [JR_Ex1_Sub078] (Eterna round: R97, puzzle: Exclusion 1)” the same measures were 35.3 nM and 36.4 nM.
